# Measurements from US20260242478A1 (published 2026).
# Where no end group is shown, it is not given here.
# Key:
# PSMA Fab [1] = biological target: T1, PSMA Fab; test: phage binding ELISA; biotinylated PSMA Fab on neutravidin plate, wells pre-incubated with PSMA antigen as competitor, clonal phage supernatant, anti-M13 HRP detection
# T1 construct: also called Anti-PSMA Fab; 006 PSMA Fab
# Procedure: (§1) Clonal phage were harvested as crude supernatants and screened via standard ELISAs. […] Prior to the addition of clonal phage. wells were incubated with blocking buffer and PSMA antigen or blocking buffer alone. Without washing or aspirating, clonal phage supernatants were then added to the wells and incubated for a short time. Wells were then washed followed by detection of bound phage using a horse radish conjugated anti-M13 antibody.
# PSMA Fab [2] = biological target: T1, PSMA Fab; test: phage binding ELISA; biotinylated PSMA Fab on neutravidin plate, clonal phage supernatant, anti-M13 HRP detection; blocking buffer alone;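 further: before phage were added, wells were preincubated with blocking buffer either containing PSMA antigen or without it, and phage were then added with no wash in between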
# Procedure: as §1
# PSMA Fab (006 PSMA Fab) [3] = biological target: T2, PSMA Fab (006 PSMA Fab); test: phage ELISA; biotinylated PSMA Fab on neutravidin plate, clonal phage supernatant, anti-M13 HRP; blocking buffer alone
# T2 construct: also called Anti-PSMA Fab; anti-PSMA Fab
# Procedure: as §1
# PSMA Fab (006 PSMA Fab) [4] = biological target: T2, PSMA Fab (006 PSMA Fab); test: phage ELISA; biotinylated PSMA Fab on neutravidin plate pre-incubated with PSMA antigen as competitor, clonal phage supernatant, anti-M13 HRP
# Procedure: as §1
# PSMA Fab (006 PSMA Fab) [5] = biological target: T3, PSMA Fab (006 PSMA Fab); test: clonal phage ELISA on biotinylated PSMA Fab captured on neutravidin, anti-M13-HRP detection;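 further: crude clonal phage supernatants added to wells preincubated with PSMA antigen in blocking buffer or with blocking buffer alone, brief binding period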
# T3 construct: also called Anti-PSMA Fab; anti-PSMA Fab
# Procedure: as §1
# PSMA Fab (006 PSMA Fab) [6] = biological target: T3, PSMA Fab (006 PSMA Fab); test: clonal phage ELISA on captured PSMA Fab, wells pre-incubated with PSMA antigen as competitor
# Procedure: as §1
Binder,"Phage binding ELISA signal, Anti-PSMA Fab in presence of PSMA (PSMA Fab [1])","Phage binding ELISA signal, Anti-PSMA Fab (PSMA Fab [2])","Phage binding ELISA signal, Anti-PSMA Fab (PSMA Fab (006 PSMA Fab) [3])","Phage binding ELISA signal, Anti-PSMA Fab with PSMA antigen (PSMA Fab (006 PSMA Fab) [4])","Phage binding ELISA signal, Anti-PSMA Fab (PSMA Fab (006 PSMA Fab) [5])","Phage binding ELISA signal, Anti-PSMA Fab in presence of PSMA antigen (PSMA Fab (006 PSMA Fab) [6])"
"DHHICRPAWMCMGL (cysteine pairing not given here; also: fused to phage pIII, linker and order not given here, Peptide-180 library clone, tested as clonal phage supernatant; not shown: pIII filament protein of the bacteriophage, to which the peptide is fused) [Phage-3209]",0.0876,1.97,–,–,–,–
VNVRCEPSWMCTGL [Phage-3243],–,–,1.94,0.0801,–,–
"DMPLCIPAWMCAGF (peptide, not shown: large carriers, cysteine pairing not given here; also: fused to phage pIII, junction sequence not given here, Clonal phage of the Peptide-180 library, tested as crude supernatant) [Phage-3194]",–,–,–,–,1.99,0.0615
VTHSCVPAWMCVGL [Phage-3248],–,–,1.93,0.091,–,–
"VVKICQPDWMCWGF (cysteine pairing not given here; also: fused to phage pIII, linker and order not given here, Peptide-180 library clone, tested as clonal phage supernatant; not shown: pIII filament protein of the bacteriophage, to which the peptide is fused) [Phage-3205]",0.0655,1.98,–,–,–,–
"DSVLCVPSWMCHGF (cysteine pairing not given here; also: fused to phage pIII, fusion site not given here) [Phage-3239]",–,–,1.94,0.0834,–,–
"LEALCVPRWMCEGF (peptide, not shown: large carriers, Clonal phage of the Peptide-180 library, tested as crude supernatant) [Phage-3189]",–,–,–,–,2,0.096
"QHWQCVPRWMCDGF (peptide, not shown: large carriers, Clonal phage of the Peptide-180 library, tested as crude supernatant) [Phage-3191]",–,–,–,–,2,0.103
"AAPMCIPAWMCHGF (peptide, not shown: large carriers, Clonal phage of the Peptide-180 library, tested as crude supernatant) [Phage-3187]",–,–,–,–,2,0.137
"VTVRCEPAWMCMGF (cysteine pairing not given here; also: fused to phage pIII, linker and order not given here, Peptide-180 library clone, tested as clonal phage supernatant; not shown: pIII filament protein of the bacteriophage, to which the peptide is fused) [Phage-3199]",0.0999,1.98,–,–,–,–
"VVPLCIPQWMCAVF (cysteine pairing not given here; also: fused to phage pIII, linker and order not given here, Peptide-180 library clone, tested as clonal phage supernatant; not shown: pIII filament protein of the bacteriophage, to which the peptide is fused) [Phage-3201]",0.0757,1.98,–,–,–,–
ETSMCRPSWMCEGF [Phage-3242],–,–,1.94,0.0918,–,–
"PEAMCRPTWMCAGF (cysteine pairing not given here; also: fused to phage pIII, linker and order not given here, Peptide-180 library clone, tested as clonal phage supernatant; not shown: pIII filament protein of the bacteriophage, to which the peptide is fused) [Phage-3211]",0.0674,1.97,–,–,–,–
"HEHFCRPLWMCTGL (peptide, not shown: large carriers, Clonal phage of the Peptide-180 library, tested as crude supernatant) [Phage-3195]",–,–,–,–,1.99,0.0753
"FDRVCKPEWMCNGL (peptide, not shown: large carriers, Clonal phage of the Peptide-180 library, tested as crude supernatant) [Phage-3198]",–,–,–,–,1.99,0.0655
"VVVSCIPTWMCVGF (cysteine pairing not given here; also: fused to phage pIII, linker and order not given here, Peptide-180 library clone, tested as clonal phage supernatant; not shown: pIII filament protein of the bacteriophage, to which the peptide is fused) [Phage-3202]",0.103,1.98,–,–,–,–
NILRCEPMWMCTGF [Phage-3245],–,–,1.94,0.0977,–,–
QDIVCRPSWMCHGF [Phage-3246],–,–,1.94,0.0762,–,–
